From US20100135904A1 (RESEARCH DEVELOPMENT FOUNDATION, published 2010)

B1: Cripto mutant lacking the CFC domain (ΔCFC), Flag-tagged (ligand, not shown: small tags and cut ends)
chain: not shown
notes: also called Cripto ACFC mutant; ACFC
B2: TGF-β type I receptor, HA-tagged (TβRI-HA) (receptor, UniProt P36897 34-503, looked up, not shown: small tags and cut ends)
chain: LQCFCHLCTKDNFTCVTDGLCFVSVTETTDKVIHNSMCIAEIDLIPRDRPFVCAPSSKTGSVTTTYCCNQDHCNKIELPTTVKSSPGLGPVELAAVIAGPVCFVCISLMLMVYICHNRTVIHHRVPNEEDPSLDRPFISEGTTLKDLIYDMTTSGSGSGLPLLVQRTIARTIVLQESIGKGRFGEVWRGKWRGEEVAVKIFSSREERSWFREAEIYQTVMLRHENILGFIAADNKDNGTWTQLWLVSDYHEHGSLFDYLNRYTVTVEGMIKLALSTASGLAHLHMEIVGTQGKPAIAHRDLKSKNILVKKNGTCCIADLGLAVRHDSATDTIDIAPNHRVGTKRYMAPEVLDDSINMKHFESFKRADIYAMGLVFWEIARRCSIGGIHEDYQLPYYDLVPSDPSVEEMRKVVCEQKLRPNIPNRWQSCEALRVMAKIMRECWYANGAARLTALRIKKTLSQLSQQEGIKM
notes: whole, on cells; Gift construct; also called TBβRI-HA; TBβRI
B3: endogenous human GRP78 (glucose regulated protein 78) at the cell surface (receptor)
chain: not shown
notes: whole, on cells; Endogenous protein; surface pool labelled with cell-impermeable biotin in the co-immunoprecipitations; also called BiP; cell surface GRP78

Key:
[1] = biological target: T1, human GRP78 with a hemagglutinin (HA) epitope at its C terminus (human, UniProt P11021 19-654); assay: cell-free pull-down of biotinylated GRP78-HA on Cripto mutant beads
T1 construct: also called GRP78-HA; WT GRP78-HA
T1 sequence (P11021 19-654 limits assumed): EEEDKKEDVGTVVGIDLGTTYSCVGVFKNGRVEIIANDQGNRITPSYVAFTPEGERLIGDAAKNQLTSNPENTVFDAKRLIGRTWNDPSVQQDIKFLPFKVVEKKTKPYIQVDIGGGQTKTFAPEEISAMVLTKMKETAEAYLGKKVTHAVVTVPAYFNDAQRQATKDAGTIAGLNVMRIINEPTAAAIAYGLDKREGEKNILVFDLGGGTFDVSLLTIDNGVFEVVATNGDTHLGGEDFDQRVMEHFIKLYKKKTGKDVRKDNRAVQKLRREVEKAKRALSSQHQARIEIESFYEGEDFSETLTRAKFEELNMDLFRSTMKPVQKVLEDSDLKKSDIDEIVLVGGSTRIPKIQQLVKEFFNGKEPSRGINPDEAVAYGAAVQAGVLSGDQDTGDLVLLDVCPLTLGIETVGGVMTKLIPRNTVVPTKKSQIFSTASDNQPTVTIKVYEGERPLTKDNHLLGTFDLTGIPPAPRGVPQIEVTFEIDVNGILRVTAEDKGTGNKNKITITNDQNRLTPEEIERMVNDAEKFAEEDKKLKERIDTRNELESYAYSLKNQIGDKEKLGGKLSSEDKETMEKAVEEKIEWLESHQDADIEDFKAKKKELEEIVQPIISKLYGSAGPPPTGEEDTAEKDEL
Text: To further characterize the ability of Cripto to bind cell surface GRP78, the inventors tested whether GRP78 from one population of cells could bind mature Cripto isolated from a separate cell population in a cell free system. […] The beads were then washed again and bound proteins were eluted with Flag peptide and subjected to Western blotting using avidin-HRP, anti-GRP78 or anti-Cripto antibodies. […] Moreover, biotinylated (i.e. cell surface-labeled) GRP78 was specifically eluted from beads previously exposed to Cripto-Flag lysates but not from beads exposed to vector lysates.
In order to explore the interaction between Cripto and GRP78 further, the inventors used the method described above (FIG. 2B) to test whether cell surface labeled GRP78 binds Cripto mutants lacking either the EGF-like domain (AEGF) or CFC domain (ACFC). In this experiment, the inventors assessed the ability of biotinylated, HA-tagged GRP78 from one cell population to bind wild type and mutant forms of Cripto originating from separate cell populations.

[2] = biological target: B3; assay: anti-HA immunoprecipitation from surface-biotinylated 293T cells, avidin-HRP and anti-GRP78 blots
Method: (§1) Cell lysates and immunoprecipitations. Cell lysates were prepared in RIPA buffer as previously described (Gray et al., 2006). For immunoprecipitation experiments, 1-5 mg protein extract was pre-cleared by protein G-PLUS-Agarose beads for 2 hours at 4° C. The pre-cleared extracts were incubated as indicated with 40 μl anti-FLAG M2 gel beads or 20 μl G-PLUS-Agarose pre-incubated with 15 μl anti-GRP78 (KDEL), 10 μl anti-HA, or 25 μl anti-His for 2 hours at 4° C. Immunoprecipitates were subsequently washed 4 times with RIPA buffer and 2 times with 54K buffer (50 mM tris pH 7.9, 150 mM NaCl, 0.5% Triton X-100). The proteins were then eluted either by heating the beads at 95° C. in sample buffer or by the addition of 50 μl of Flag peptide (1 μg/μl) followed by removal of any remaining associated proteins by heating in sample buffer. Western blotting
(§2) The finding that GRP78 inhibits TGF-β signaling raised the possibility that it does so by binding directly to type I and/or type II TGF-β signaling receptors. […] Here the inventors have further tested whether GRP78 similarly co-immunoprecipitates with TBβRI and TBβRII. […] Each of these proteins was immunoprecipitated as bait and then immune complexes were assessed for the presence of GRP78. […] However, only Cripto pulled down endogenous GRP78 as detected both by avidin-HRP and anti-GRP78 antibody (FIG. 5).

[3] = biological target: T2, TGF-β type II receptor, His-tagged (TβRII-His) (UniProt P37173 23-166, limits assumed); assay: anti-His immunoprecipitation from surface-biotinylated 293T cells, avidin-HRP and anti-GRP78 blots
T2 construct: whole, on cells; Gift construct; also called TBβRII-His; TBβRII; not shown: His tag
T2 sequence (P37173 23-166 limits assumed): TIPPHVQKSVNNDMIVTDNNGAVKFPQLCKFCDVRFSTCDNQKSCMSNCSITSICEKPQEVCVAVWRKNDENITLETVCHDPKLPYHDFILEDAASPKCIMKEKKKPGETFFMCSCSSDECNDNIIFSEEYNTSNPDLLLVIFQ
Method: as §1, §2

B1: no binding [1].

B2: no binding [2].

B3: no binding [3].
